Data: patent publication US20070015695A1 (NATIONAL JEWISH HEALTH, published 2007)

B1: extracellular domain of BCMA (residues 1 to 51 of SEQ ID NO:6), soluble monomer, cleaved from GST-BCMA (receptor)
chain: MLQMAGQCSQNEYFDSLLHACIPCQLRCSSNTPPLTCQRYCNASVTNSVKG
notes: Expressed as a GST fusion in pGEX4T-2 and cleaved from GST with thrombin; also called monomeric BCMA; monomeric BMCA
B2: mutant sTALL-1 with residues 217-224 of SEQ ID NO:2 (flap region) replaced by two glycines (ligand)
chain: AVQGPEETVTQDCLQLIADSETPTIQKGSYTFVPWLLSFKRGSALEEKENKILVKETGYFFIYGQVLYTDKTYAMGHLIQRKKGGSLVTLFRCIQNMPETLPNNSCYSAGIAKLEEGDELQLAIPRENAQISLDGDVTFFGALKLL
notes: Gel filtration gave trimer and monomer peaks and no cluster; Immobilised as 'mutant trimeric sTALL-1' in the BIAcore assay; also called truncated sTALL-1; sTALL-1 217-224; not shown: N-terminal His6 tag; the mutant was overexpressed and purified as the native sTALL-1 and detected with anti-His6 mAb; le
B3: eBCMA, extracellular domain of BCMA (residues 1-52 of SEQ ID NO:6) (receptor)
chain: MLQMAGQCSQNEYFDSLLHACIPCQLRCSSNTPPLTCQRYCNASVTNSVKGT
notes: Residues 5-43 are ordered in the model; Made as a GST fusion and cleaved with thrombin
B4: BCMA, entire, overexpressed on transfected 293 cells (receptor)
chain: MLQMAGQCSQNEYFDSLLHACIPCQLRCSSNTPPLTCQRYCNASVTNSVKGTNAILWTCLGLSLIISLAVFVLMFLLRKISSEPLKDEFKNTGSGLLGMANIDLEKSRTGDEIILPRGLEYTVEECTCEDCIKSKPKVDSDHCFPLPAMEEGATILVTTKTNDYCKSLPAALSATEIEKSISAR
notes: also called BCMA-transfected 293 cells; cells that overexpressed entire BCMA

Assays:
[1] = target: T1, soluble TALL-1 (sTALL-1), amino acids 134-285 of human TALL-1, His6-tagged, wild type (human, UniProt Q9Y275 134-285); test: BIAcore SPR, sTALL-1 immobilised on CM-5 chip, monomeric BCMA (10-1000 nM) injected, Scatchard analysis of equilibrium binding
T1 construct: Expressed in E. coli; Monomers form trimers, and at pH 7.4 and above a virus-like cluster of 60 monomers (20 trimers); Immobilised as 'wild type multimeric sTALL-1' in the BIAcore assay; also called wild type sTALL-1; native sTALL-1; not shown: N-terminal His6 tag from vector pET14b
Method: (§1) The binding affinity of BCMA for the wild type versus mutant sTALL-1 was further determined using BIACore surface plasmon resonance. To obtain the true affinity of the receptor without the confounding effect of multivalent binding, the polyvalent TALL-1 proteins were immobilized in the instrument flow cells and the soluble monomeric BCMA was injected in the mobile phase. The KD of the interaction was calculated by Scatchard analysis of the equilibrium data (data not shown). Briefly, wild type multimeric sTALL-1 and mutant trimeric sTALL-1 were immobilized (11,000 and 3000 RU, respectively) in separate flow cells of a CM-5 BIAcore Biosenser chip using standard amine coupling reagents. Various concentrations (10-1000 nM) of monomeric BMCA were injected for one min at a flow rate of 20 μl/min in a buffer of 100 mMNaCl, 20 mM Tris-HCI pH8.0 and 0.005% P20 detergent and the binding kinetics recording. For base line calculations the same BMCA samples were injected in a control flow cell with no protein immobilized. Receptor binding kinetics were too rapid for accurate measurements of on rates and off rates, but equilibrium binding values (Rmax) were used to calculate the overall affinity of receptor binding by Scatchard analysis.

[2] = target: B4; test: flow cytometry on BCMA-transfected 293 cells, anti-His6 mAb detection
Method: (§2) First, BCMA-transfected 293 cells were incubated with control medium, wild type sTALL-1 in the control medium, and mutant sTALL-1 in the control medium. Cell staining was performed by sequential incubation (each 40 min) with anti-His₆ mAb and RPE-conjugated goat […] IgG in staining buffer. The fluorescence was measured by using a Becton Dickinson FACScan flow cytometer (Shu et al., 2000, supra) (data not shown).

[3] = target: B1; test: BIAcore SPR, mutant trimeric sTALL-1 immobilised on CM-5 chip, monomeric BCMA (10-1000 nM) injected, Scatchard analysis of equilibrium binding; mutant trimeric sTALL-1 (flap removed) immobilised, monomeric BCMA injected
Method: as §1

[4] = target: T1, soluble TALL-1 (sTALL-1), amino acids …; test: co-expression, gel filtration at 100 mM to 1 M NaCl and SDS gel analysis, ratio 1:1
Method: However, four lines of evidence support the present inventors' belief that the crystal structure described herein reflects the actual interactions of the complexes in solution and in vivo. First, co-expression of sTALL-1 with eBCMA or eBAFF-R generates the virus-like cluster in solution as judged by gel-filtration column and […] analysis at a ratio of 1:1 (sTALL-1: eBCMA or eBAFF-R). Different salt concentrations (from 100 mM to 1 M NaCl) produce the same elution profile, in which complexes of sTALL-1 with eBCMA or eBAFF-R elute at a void volume on superdex-200. Thus, binding between ligand and receptors is stable and insensitive to salt concentrations. Purified samples of the preformed complexes were subjected to crystallization trials. Crystals of both complexes have been obtained, however neither of them diffracted. The results further confirmed that the “flap” region of TALL-1 which is involved in clustering, is not part of the receptor binding site. […] Second, in the receptor soaked sTALL-1 crystals, all seven fully occupied receptors and one partial receptor have equivalent binding sites on sTALL-1 in the asymmetry unit, so the binding is highly specific. Third, eBCMA and eBAFF-R have a similar binding mode and occupy the same site on sTALL-1. […]

[5] = target: T1, soluble TALL-1 (sTALL-1), amino acids …; test: flow cytometry on BCMA-transfected 293 cells, anti-His6 mAb detection
Method: as §2

Binder: B1
Kd [1]: ~100 nM

Binder: B2
binding result [2]: binds | Kd [3]: ~100 nM

Binder: B3
binding result [4]: binds

Binder: B4
binding result [5]: binds
